Data as given in paper PMC4036362, “Normal Activation of Discoidin Domain Receptor 1 Mutants with Disulfide Cross-links, Insertions, or Deletions in the Extracellular Juxtamembrane Region” (The Journal of Biological Chemistry, 2014).
Numbering of substitutions follows the chain as printed. In names and notes the source's numbering stands.

B1: DDR1 V408C (in the C287S background) (receptor, human, UniProt Q08345 19-913, looked up)
chain: DADMKGHFDPAKCRYALGMQDRTIPDSDISASSSWSDSTAARHSRLESSDGDGAWCPAGSVFPKEEEYLQVDLQRLHLVALVGTQGRHAGGLGKEFSRSYRLRYSRDGRRWMGWKDRWGQEVISGNEDPEGVVLKDLGPPMVARLVRFYPRADRVMSVCLRVELYGCLWRDGLLSYTAPVGQTMYLSEAVYLNDSTYDGHTVGGLQYGGLGQLADGVVGLDDFRKSQELRVWPGYDYVGWSNHSFSSGYVEMEFEFDRLRAFQAMQVHSNNMHTLGARLPGGVECRFRRGPAMAWEGEPMRHNLGGNLGDPRARAVSVPLGGRVARFLQCRFLFAGPWLLFSEISFISDVVNNSSPALGGTFPPAPWWPPGPPPTNFSSLELEPRGQQPCAKAEGSPTAILIGCLVAIILLLLLIIALMLWRLHWRRLLSKAERRVLEEELTVHLSVPGDTILINNRPGPREPPPYQEPRPRGNPPHSAPCVPNGSALLLSNPAYRLLLATYARPPRGPGPPTPAWAKPTNTQAYSGDYMEPEKPGAPLLPPPPQNSVPHYAEADIVTLQGVTGGNTYAVPALPPGAVGDGPPRVDFPRSRLRFKEKLGEGQFGEVHLCEVDSPQDLVSLDFPLNVRKGHPLLVAVKILRPDATKNARNDFLKEVKIMSRLKDPNIIRLLGVCVQDDPLCMITDYMENGDLNQFLSAHQLEDKAAEGAPGDGQAAQGPTISYPMLLHVAAQIASGMRYLATLNFVHRDLATRNCLVGENFTIKIADFGMSRNLYAGDYYRVQGRAVLPIRWMAWECILMGKFTTASDVWAFGVTLWEVLMLCRAQPFGQLTDEQVIENAGEFFRDQGRQVYLSRPPACPQGLYELMLRCWSRESEQRPPFSQLHRFLAEDALNTV
notes: discoidin domain receptor 1, isoform DDR1b, human; full-length cDNA in pRK5; source: HEK293, transiently transfected, in lysate
B2: DDR1 residue 414 to cysteine (in the C287S background) (receptor, human, UniProt Q08345 19-913, looked up)
chain: B1 chain with C390V, S396C
notes: discoidin domain receptor 1, isoform DDR1b, human; full-length cDNA in pRK5; The text gives only the range V408C to A417C (10 single mutants); also called one of the 10 mutants V408C to A417C; source: HEK293, transiently transfected, in lysate
B3: DDR1 residue 410 to cysteine (in the C287S background) (receptor, human, UniProt Q08345 19-913, looked up)
chain: B1 chain with C390V, K392C
notes: as for B2
B4: DDR1 residue 413 to cysteine (in the C287S background) (receptor, human, UniProt Q08345 19-913, looked up)
chain: B1 chain with C390V, G395C
notes: as for B2
B5: DDR1 E412C (in the C287S background) (receptor, human, UniProt Q08345 19-913, looked up)
chain: B1 chain with C390V, E394C
notes: as for B1
B6: DDR1 residue 409 to cysteine (in the C287S background) (receptor, human, UniProt Q08345 19-913, looked up)
chain: B1 chain with C390V, A391C
notes: as for B2
B7: DDR1 residue 411 to cysteine (in the C287S background) (receptor, human, UniProt Q08345 19-913, looked up)
chain: B1 chain with C390V, A393C
notes: as for B2

Target: the molecule itself
Assay: cross-linking; disulfide cross-linking of introduced cysteines in transiently transfected HEK293 cells, untreated or with 10 ug/ml collagen I for 90 min at 37 °C; lysis in 1% Nonidet P-40 buffer with NEM; nonreducing SDS-PAGE on 5% gels, Western blot with anti-DDR1; efficiency as percent dimeric of total DDR1

Dimerization efficiency (percent dimeric of total DDR1), > 70%:
B1
B2
B3
B4
B5
B6
B7
